Target: T1, fibronectin type III domains 1-5 of human tenascin-C (human, UniProt P24821 625-1075)
T1 construct: range 625-1075; Expressed in HEK293 cells, purified on Streptactin XT; coated on the ELISA plate; also called TN1-5
T1 sequence (looked up): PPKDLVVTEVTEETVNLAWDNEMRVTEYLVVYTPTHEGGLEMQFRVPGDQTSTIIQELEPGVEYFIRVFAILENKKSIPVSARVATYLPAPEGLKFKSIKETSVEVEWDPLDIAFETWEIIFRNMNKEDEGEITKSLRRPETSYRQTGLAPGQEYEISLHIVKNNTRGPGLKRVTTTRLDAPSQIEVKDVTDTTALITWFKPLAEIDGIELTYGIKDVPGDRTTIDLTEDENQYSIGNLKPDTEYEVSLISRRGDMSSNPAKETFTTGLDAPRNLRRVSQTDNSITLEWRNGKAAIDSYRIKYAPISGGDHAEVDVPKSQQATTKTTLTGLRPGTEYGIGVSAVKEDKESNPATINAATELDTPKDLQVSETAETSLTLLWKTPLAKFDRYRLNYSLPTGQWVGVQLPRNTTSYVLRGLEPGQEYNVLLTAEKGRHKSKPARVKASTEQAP
Assay: ELISA, TN1-5 coated, biotinylated FN4-6 titrated 1 nM to 1 µM

- Kd: 44 nM
B1: fibronectin type III domains 4-6 of human fibronectin (double Strep-tagged) (other, UniProt P02751 909-1175, looked up, not shown: small tags and cut ends)
chain: SPRDLQFVEVTDVKVTIMWTPPESAVTGYRVDVIPVNLPGEHGQRLPISRNTFAEVTGLSPGVTYYFKVFAVSHGRESKPLTAQQTTKLDAPTNLQFVNETDSTVLVRWTPPRAQITGYRLTVGLTRRGQPRQYNVGPSVSKYPLRNLQPASEYTVSLVAIKGNQESPKATGVFTTLQPGSSIPPYNTEVTETTIVITWTPAPRIGFKLGVRPSQGGEAPREVTSDSGSIVVSGLTPGVEYVYTIQVLRDGQERDAPIVNKVVTPLS
notes: range 909-1175; Biotinylated with Biotin-Ahx-NHS for the ELISA on TN1-5; also called FN4-6
